Measured values taken from publication PMC5494190, “Structure of the Rpn13-Rpn2 complex provides insights for Rpn13 and Uch37 as anticancer targets” (Nature Communications, 2017).
No end group written: not given here. *: point of attachment. FITC‑N3 = fluorescein azide; Pent4ynoyl = C#CCCC(=O)*; AEEA = NCCOCCOCC(=O)O

B1: FITC-hRpn2 (940–953) (peptide)
peptide: {FITC‑N3-Pent4ynoyl-AEEA}-QEPEPPEPFEYIDD
notes: also called FITC-labelled hRpn2 probe; source: synthetic peptide (Fmoc solid-phase synthesis, click coupling to FITC-N3, HPLC purified)
B2: hRpn2 (944–953) (peptide)
peptide: PPEPFEYIDD
notes: source: synthetic peptide (Fmoc chemistry on Wang resin, HPLC purified)
B3: hRpn2 (940–953) (peptide)
chain: QEPEPPEPFEYIDD
notes: The author contributions say that peptides were synthesized for the DSF experiment, so the DSF sample may be a synthetic peptide of the same limits; also called hRpn2 peptide; hRpn2 fragment; source: E. coli BL21(DE3) pLysS, purified (Glutathione S-sepharose 4B, PreScission cleavage, Superdex75); not shown: GST, N-terminal, cleaved

Columns and labels:
full-length hRpn13 = target: T1, full-length hRpn13 (human, UniProt Q16186 1-407); test: fluorescence polarisation; 10 nM FITC-hRpn2 (940–953) with serially diluted full-length hRpn13; 20 mM sodium phosphate, 50 mM NaCl, pH 6.5; room temperature, 30 min; Hill slope model; also with 100 μM RA190 or 2% DMSO; settings: both partners purified
T1 construct: hRpn13/Adrm1, human, full-length protein (Pru and DEUBAD domains); The preparation of the full-length protein is not described; it was not held on Talon resin by itself in the pull-down, so it probably carried no His tag; also called hRpn13 full-length protein; Adrm1; source: purified recombinant protein

[1] = target: T2, hRpn13 (1–150), which includes the Pru domain (human, UniProt Q16186 1-150); test: ITC; 25 °C; 200 μM hRpn2 peptide injected into 20 μM or 18 μM hRpn13 Pru in the cell; 20 mM sodium phosphate, 50 mM NaCl, 10 mM βME, pH 7.0; one-site fit; settings: both partners purified
T2 construct: hRpn13/Adrm1, human, residues M1-L150 (Pru domain; N-terminal 19 and C-terminal 20 residues randomly coiled); Isotope-labelled (15N, 13C) in some NMR samples; also called hRpn13 Pru; hRpn13 Pru (1–150); not shown: His tag, N-terminal, cleaved
T2 sequence (Q16186 1-150): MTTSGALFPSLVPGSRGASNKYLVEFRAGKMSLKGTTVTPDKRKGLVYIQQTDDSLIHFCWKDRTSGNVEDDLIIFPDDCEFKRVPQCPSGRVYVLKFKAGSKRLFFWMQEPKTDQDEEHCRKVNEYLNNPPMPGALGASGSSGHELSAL

T1 sequence (Q16186 whole entry, the tested form may be a part): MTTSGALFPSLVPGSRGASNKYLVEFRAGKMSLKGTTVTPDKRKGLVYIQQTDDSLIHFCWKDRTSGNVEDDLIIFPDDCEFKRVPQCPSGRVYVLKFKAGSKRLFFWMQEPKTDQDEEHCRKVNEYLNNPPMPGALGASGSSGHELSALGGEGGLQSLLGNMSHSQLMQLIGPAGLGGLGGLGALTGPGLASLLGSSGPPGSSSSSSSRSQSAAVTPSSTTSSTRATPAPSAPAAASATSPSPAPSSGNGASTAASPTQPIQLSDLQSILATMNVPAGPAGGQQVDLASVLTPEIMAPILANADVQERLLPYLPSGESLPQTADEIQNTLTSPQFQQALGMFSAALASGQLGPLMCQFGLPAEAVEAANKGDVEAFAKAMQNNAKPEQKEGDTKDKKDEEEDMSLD

Binder | Kd (full-length hRpn13) [nM] | Kd [1] [nM]
B1 | 14.7 | –
B2 | – | 1960 ± 220
B3 | – | 27 ± 10
